According to patent publication US20200277397A1 (Genmab, published 2020):

Key:
[1] = target: T1, full length cynomolgus monkey 5T4 (cynomolgus monkey, UniProt Q4R8Y9 35-420); test: flow cytometry, HEK-293 cells transfected with cynomolgus monkey 5T4 (right panel), PE anti-human IgG F(ab')2, MFI PE
T1 construct: Uniprot Q4R8Y9; also called cynomolgus monkey 5T4 on HEK-293 cells
T1 sequence: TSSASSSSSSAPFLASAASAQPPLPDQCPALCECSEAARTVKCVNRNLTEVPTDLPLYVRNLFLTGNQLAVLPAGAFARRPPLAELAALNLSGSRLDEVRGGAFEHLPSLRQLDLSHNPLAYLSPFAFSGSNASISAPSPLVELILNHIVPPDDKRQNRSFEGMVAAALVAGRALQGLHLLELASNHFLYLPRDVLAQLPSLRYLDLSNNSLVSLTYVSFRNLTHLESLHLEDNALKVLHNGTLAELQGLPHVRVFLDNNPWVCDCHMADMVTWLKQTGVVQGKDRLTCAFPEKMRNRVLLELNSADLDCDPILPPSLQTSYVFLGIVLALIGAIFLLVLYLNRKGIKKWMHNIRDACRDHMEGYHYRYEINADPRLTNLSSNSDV

full length human 5T4 [2] = target: T2, full length human 5T4 (human, UniProt Q13641 32-420); test: flow cytometry, MDA-MB-231 cells, PE anti-human IgG F(ab')2, MFI PE
T2 construct: Uniprot Q13641; Used here also for endogenous 5T4 on the human tumour cell lines
T2 sequence: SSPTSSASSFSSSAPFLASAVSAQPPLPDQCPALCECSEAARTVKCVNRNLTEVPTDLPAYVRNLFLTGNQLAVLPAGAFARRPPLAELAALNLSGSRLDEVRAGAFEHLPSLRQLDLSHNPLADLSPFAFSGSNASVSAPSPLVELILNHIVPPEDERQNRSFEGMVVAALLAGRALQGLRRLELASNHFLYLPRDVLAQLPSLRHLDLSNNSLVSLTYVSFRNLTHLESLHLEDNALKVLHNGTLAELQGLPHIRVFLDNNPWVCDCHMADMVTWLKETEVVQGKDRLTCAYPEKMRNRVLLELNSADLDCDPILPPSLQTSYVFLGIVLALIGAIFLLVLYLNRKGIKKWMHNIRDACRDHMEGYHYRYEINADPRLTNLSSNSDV

full length human 5T4 [3] = target: T2, full length human 5T4; test: as above; remark: listed apart in the source
full length human 5T4 [4] = target: T2, full length human 5T4; test: flow cytometry, HeLa cells, PE anti-human IgG F(ab')2, MFI PE
[5] = target: T1, full length cynomolgus monkey 5T4; test: flow cytometry, HEK-293 cells transfected with cynomolgus monkey 5T4 (right panel), PE anti-human IgG F(ab')2, MFI PE; remark: listed apart in the source
full length human 5T4 [6] = target: T2, full length human 5T4; test: flow cytometry, HeLa cells (left panel), FITC anti-human IgG F(ab')2, MFI FITC
Description: (§1) After washing twice in staining buffer, cells were incubated in 50 μL secondary antibody at 4° C. for 30 min. […] Next, cells were washed twice in staining buffer, re-suspended in 120 μL staining buffer and analyzed on a BD LSRFortessa FACS (BD Biosciences, USA). Binding curves were analyzed using non-linear regression (sigmoidal dose-response with variable slope) using GraphPad Prism V7.02 software (GraphPad Software, San Diego, Calif., USA).

full length human 5T4 [7] = target: T2, full length human 5T4; test: flow cytometry, MDA-MB-231 cells (right panel), FITC anti-human IgG F(ab')2, MFI FITC
Description: as §1

[8] = target: T1, full length cynomolgus monkey 5T4; test: flow cytometry, HEK-293 cells transfected with full length cynomolgus monkey 5T4 (right panel), FITC anti-human IgG F(ab')2, MFI FITC
Description: (§2) Binding of monovalent and bivalent 5T4 antibodies was analysed using HEK-293 cells transiently transfected with full length human (left panels) or cynomolgus monkey 5T4 (right panels). Cells were incubated with increasing concentrations of antibodies, as indicated. After secondary labelling with FITC conjugated goat-anti-human IgG F(ab′)2, binding was analysed by flow cytometry. […] Data are presented as mean fluorescence intensity (MFI) values of two technical replicates±SD.
(§3) Experiments were performed in technical duplicate. After washing twice in staining buffer, cells were incubated in 50 μL secondary antibody at 4° C. for 30 min. […] Cells were washed twice in staining buffer, re-suspended in 30 μL staining buffer and analyzed on an iQue Screener (Intellicyt Corporation, USA). Binding curves were analyzed using non-linear regression (sigmoidal dose-response with variable slope) using GraphPad Prism V7.02 software (Graph Pad Software, San Diego, Calif., USA).

full length human 5T4 [9] = target: T2, full length human 5T4; test: flow cytometry, HeLa cells, PE anti-human IgG F(ab')2, MFI PE; remark: listed apart in the source
full length human 5T4 [10] = target: T2, full length human 5T4; test: flow cytometry, HEK-293 cells transfected with human 5T4 (left panel), PE anti-human IgG F(ab')2, MFI PE
full length human 5T4 [11] = target: T2, full length human 5T4; test: flow cytometry, MDA-MB-231 cells, PE anti-human IgG F(ab')2, MFI PE; remark: listed apart in the source
full length human 5T4 [12] = target: T2, full length human 5T4; test: flow cytometry, HeLa cells (left panel), FITC anti-human IgG F(ab')2, MFI FITC; remark: listed apart in the source
Description: as §1

[13] = target: T1, full length cynomolgus monkey 5T4; test: flow cytometry, HEK-293 cells transfected with cynomolgus monkey 5T4 (right panel), PE anti-human IgG F(ab')2, MFI PE; remark: listed apart in the source
full length human 5T4 [14] = target: T2, full length human 5T4; test: flow cytometry, HeLa cells, PE anti-human IgG F(ab')2, MFI PE; remark: listed apart in the source
full length human 5T4 [15] = target: T2, full length human 5T4; test: flow cytometry, HEK-293 cells transfected with full length human 5T4 (left panel), FITC anti-human IgG F(ab')2, MFI FITC
Description: as §2, §3

[16] = target: T1, full length cynomolgus monkey 5T4; test: flow cytometry, HEK-293 cells transfected with full length cynomolgus monkey 5T4 (right panel), FITC anti-human IgG F(ab')2, MFI FITC; remark: listed apart in the source
Description: as §2, §3

full length human 5T4 [17] = target: T2, full length human 5T4; test: flow cytometry, MDA-MB-231 cells (right panel), FITC anti-human IgG F(ab')2, MFI FITC; remark: listed apart in the source
Description: as §1

full length human 5T4 [18] = target: T2, full length human 5T4; test: flow cytometry, HEK-293 cells transfected with human 5T4 (left panel), PE anti-human IgG F(ab')2, MFI PE; remark: listed apart in the source
[19] = target: T1, full length cynomolgus monkey 5T4; test: flow cytometry, HEK-293 cells transfected with cynomolgus monkey 5T4 (right panel), PE anti-human IgG F(ab')2, MFI PE; remark: listed apart in the source
[20] = target: T1, full length cynomolgus monkey 5T4; test: flow cytometry, HEK-293 cells transfected with full length cynomolgus monkey 5T4 (right panel), FITC anti-human IgG F(ab')2, MFI FITC; remark: listed apart in the source
Description: as §2, §3

full length human 5T4 [21] = target: T2, full length human 5T4; test: flow cytometry, HEK-293 cells transfected with full length human 5T4 (left panel), FITC anti-human IgG F(ab')2, MFI FITC; remark: listed apart in the source
Description: as §2, §3

B1: IgG1-5T4-207-FEAR (antibody, V domains shown)
VH: QVQLQQWGAGLLKPSETLSLTCAVYGGSFSGYYWTWIRQPPGKGLEWIGEIDHSESTNYNPSLKSRVTISVDTSKNQFSLKLSSVTAADTAVYYCAGWFGELYHYYYGMDVWGQGTTVTVSS
VL: EIVLTQSPATLSLSPGERATLSCRASQSVSSYLAWYQQKPGQAPRLLIYDASNRATGIPARFSGSGSGTDFTLTISSLEPEDFAVYYCQQRSNWPLTFGGGTKVEIKR
notes: Human IgG1 FEAR, kappa (as for m12)
EC50 (read off the curve) [1]: ~0.1 µg/mL
EC50 (read off the curve) (full length human 5T4 [2]): ~0.02 µg/mL

B2: bsIgG1-huCD3-H101G-FEALx5T4-106-FEAR (bispecific antibody)
heavy 1: not shown
VL: not shown
heavy 2: EVQLVQSGAEVKKPGESLKISCKGSGYRFTSYWIGWVRQMPGKGLEWMGIIYPGDSDARYSPSFQGQVTISADKSISTAYLQWSSLKASDTGMYYCARSVLFDYWGQGTLVTVSSASTKGPSVFPLAPSSKSTSGGTAALGCLVKDYFPEPVTVSWNSGALTSGVHTFPAVLQSSGLYSLSSVVTVPSSSLGTQTYICNVNHKPSNTKVDKRVEPKSCDKTHTCPPCPAPEFEGGPSVFLFPPKPKDTLMISRTPEVTCVVVAVSHEDPEVKFNWYVDGVEVHNAKTKPREEQYNSTYRVVSVLTVLHQDWLNGKEYKCKVSNKALPAPIEKTISKAKGQPREPQVYTLPPSREEMTKNQVSLTCLVKGFYPSDIAVEWESNGQPENNYKTTPPVLDSDGSFFLYSRLTVDKSRWQQGNVFSCSVMHEALHNHYTQKSLSLSPGK
light: AIQLTQSPSSLSASVGDRVTITCRASQGISSALAWYQQKPGKAPKLLIYDVSNLESGVPSRFSGSGSGTDFTLTISSLQPEDFATYYCQQFNSYPHTFGQGTKLEIKRTVAAPSVFIFPPSDEQLKSGTASVVCLLNNFYPREAKVQWKVDNALQSGNSQESVTEQDSKDSTYSLSSTLTLSKADYEKHKVYACEVTHQGLSSPVTKSFNRGEC
EC50 (read off the curve) (full length human 5T4 [3]): ~0.1 µg/mL
EC50 (read off the curve) (full length human 5T4 [4]): ~0.1 µg/mL
binding result [5]: binds

B3: bsIgG1-huCD3-H101G-FEALx5T4-207-FEAR (bispecific antibody)
heavy 1: not shown
VL: not shown
heavy 2: QVQLQQWGAGLLKPSETLSLTCAVYGGSFSGYYWTWIRQPPGKGLEWIGEIDHSESTNYNPSLKSRVTISVDTSKNQFSLKLSSVTAADTAVYYCAGWFGELYHYYYGMDVWGQGTTVTVSSASTKGPSVFPLAPSSKSTSGGTAALGCLVKDYFPEPVTVSWNSGALTSGVHTFPAVLQSSGLYSLSSVVTVPSSSLGTQTYICNVNHKPSNTKVDKRVEPKSCDKTHTCPPCPAPEFEGGPSVFLFPPKPKDTLMISRTPEVTCVVVAVSHEDPEVKFNWYVDGVEVHNAKTKPREEQYNSTYRVVSVLTVLHQDWLNGKEYKCKVSNKALPAPIEKTISKAKGQPREPQVYTLPPSREEMTKNQVSLTCLVKGFYPSDIAVEWESNGQPENNYKTTPPVLDSDGSFFLYSRLTVDKSRWQQGNVFSCSVMHEALHNHYTQKSLSLSPGK
light: not shown
EC50 (read off the curve) (full length human 5T4 [6]): ~0.05 µg/mL
EC50 (read off the curve) [1]: ~0.03 µg/mL
EC50 (read off the curve) (full length human 5T4 [7]): ~0.1 µg/mL
EC50 (read off the curve) [8]: ~0.1 µg/mL
EC50 (read off the curve) (full length human 5T4 [2]): ~0.04 µg/mL
EC50 (read off the curve) (full length human 5T4 [9]): ~0.04 µg/mL
EC50 (read off the curve) (full length human 5T4 [10]): ~0.05 µg/mL

B4: bsIgG1-huCD3-H101G-FEALx5T4-226-FEAR (bispecific antibody)
heavy 1: not shown
VL: not shown
heavy 2: QVQLQQWGAGLLKPSETLSLTCAVYGGSFSGYYWSWIRQPPGKGLEWIGEIDHSGSTNYNPSLKSRVTISVDTSKNQFSLKLSSVTAADTAVYYCAAWFGELWDYYYGMDVWGQGTTVTVSSASTKGPSVFPLAPSSKSTSGGTAALGCLVKDYFPEPVTVSWNSGALTSGVHTFPAVLQSSGLYSLSSVVTVPSSSLGTQTYICNVNHKPSNTKVDKRVEPKSCDKTHTCPPCPAPEFEGGPSVFLFPPKPKDTLMISRTPEVTCVVVAVSHEDPEVKFNWYVDGVEVHNAKTKPREEQYNSTYRVVSVLTVLHQDWLNGKEYKCKVSNKALPAPIEKTISKAKGQPREPQVYTLPPSREEMTKNQVSLTCLVKGFYPSDIAVEWESNGQPENNYKTTPPVLDSDGSFFLYSRLTVDKSRWQQGNVFSCSVMHEALHNHYTQKSLSLSPGK
light: not shown
EC50 (read off the curve) (full length human 5T4 [11]): ~0.04 µg/mL
EC50 (read off the curve) (full length human 5T4 [12]): ~0.02 µg/mL
EC50 (read off the curve) [13]: ~0.06 µg/mL
EC50 (read off the curve) (full length human 5T4 [14]): ~0.04 µg/mL
EC50 (read off the curve) (full length human 5T4 [15]): ~0.2 µg/mL
EC50 (read off the curve) [16]: ~0.1 µg/mL
EC50 (read off the curve) (full length human 5T4 [17]): ~0.09 µg/mL
EC50 (read off the curve) (full length human 5T4 [18]): ~0.09 µg/mL

B5: IgG1-5T4-076-FEAR (antibody, V domains shown)
VH: QVQLVQSGAEVKKPGASVKVSCKASGYTFTSYGISWVRQAPGQGLEWMGWISAYNGNTNYAQKLQGRVTMTTDTSTRTAYMELRSLRSDDTAVYYCARDPGYFDWLYGDYWGQGTLVTVSS
VL: AIQLTQSPSSLSASVGDRVTITCRASQGISSALAWYQQKPGKAPKLLIYDASSLESGVPSRFSGSGSGTDFTLTISSLQPEDFATYYCQQFNSYPRTFGQGTKVEIKR
notes: as for B1
EC50 (read off the curve) [19]: ~0.01 µg/mL

B6: bsIgG1-huCD3-H101G-FEALx5T4-H8-FEAR (bispecific antibody)
heavy 1: not shown
VL 1: not shown
heavy 2: EVQLQQSGPDLVKPGASVKISCKASGYSFTGYYMHWVKQSHGKSLEWIGRINPNNGVTLYNQKFKDKAILTVDKSSTTAYMELRSLTSEDSAVYYCARSTMITNYVMDYWGQVTSVTVSSASTKGPSVFPLAPSSKSTSGGTAALGCLVKDYFPEPVTVSWNSGALTSGVHTFPAVLQSSGLYSLSSVVTVPSSSLGTQTYICNVNHKPSNTKVDKRVEPKSCDKTHTCPPCPAPEFEGGPSVFLFPPKPKDTLMISRTPEVTCVVVAVSHEDPEVKFNWYVDGVEVHNAKTKPREEQYNSTYRVVSVLTVLHQDWLNGKEYKCKVSNKALPAPIEKTISKAKGQPREPQVYTLPPSREEMTKNQVSLTCLVKGFYPSDIAVEWESNGQPENNYKTTPPVLDSDGSFFLYSRLTVDKSRWQQGNVFSCSVMHEALHNHYTQKSLSLSPGK
VL 2: SIVMTQTPTFLLVSAGDRVTITCKASQSVSNDVAWYQQKPGQSPTLLISYTSSRYAGVPDRFIGSGYGTDFTFTISTLQAEDLAVYFCQQDYNSPPTFGGGTKLEIK
EC50 (read off the curve) [20]: ~0.1 µg/mL
binding result (full length human 5T4 [21]): binds
